Assay [1] has as its target T1, human SLC17A9 (Homo sapiens, UniProt Q9BYT1, N228S).
T1 construct: His6 (from pDEST10 vector); made in house; host or cells: insect cells, baculovirus system (Sf9 named for virus production)
T1 sequence (Q9BYT1 1-430 isoform Q9BYT1-2 N222S): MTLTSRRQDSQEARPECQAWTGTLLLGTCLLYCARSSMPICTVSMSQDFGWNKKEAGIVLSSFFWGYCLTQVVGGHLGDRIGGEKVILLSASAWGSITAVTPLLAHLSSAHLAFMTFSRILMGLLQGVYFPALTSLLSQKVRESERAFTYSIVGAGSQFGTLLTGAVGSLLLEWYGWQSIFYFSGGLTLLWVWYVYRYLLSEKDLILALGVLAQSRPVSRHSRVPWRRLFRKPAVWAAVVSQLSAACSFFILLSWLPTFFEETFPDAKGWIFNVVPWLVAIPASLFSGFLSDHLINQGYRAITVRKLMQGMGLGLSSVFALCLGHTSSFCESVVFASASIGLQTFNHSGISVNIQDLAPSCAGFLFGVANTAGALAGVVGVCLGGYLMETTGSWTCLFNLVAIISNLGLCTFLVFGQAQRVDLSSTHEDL
Kind of assay: Nucleotide transport by human SLC17A9 reconstituted proteoliposomes (valinomycin-induced membrane potential, radiolabelled substrate). It is filed as biochemical. How it is done: (§1) 10 μg of purified SLC17A9 and 0.5 mg of soybean-derived lipids were mixed and incubated at −80° C. for 5 minutes or more. The mixture was thawed quickly by holding the tube in the hands, and was diluted 60-fold with a buffer solution containing 20 mM MOPS-Tris (pH 7.0), 0.15M sodium acetate, 2 mM magnesium acetate and 0.5 mM DTT. This dilution was centrifuged at 200,000×g at 4° C. for one hour, the supernatant was discarded, and the precipitate was resuspended in a buffer solution containing 20 mM MOPS-Tris (pH 7.0), 0.15M sodium acetate, 2 mM magnesium acetate and 0.5 mM DTT, to obtain SLC17A9 reconstituted proteoliposomes. As a control, liposomes without SLC17A9 were used.
The nucleotide transport activity was measured by the following procedure. The reconstituted proteoliposomes were incubated in a buffer solution containing 20 mM MOPS-Tris (pH 7.0), 0.15M potassium acetate, 2 mM magnesium acetate and 4 mM potassium chloride, at 27° C. for 2 minutes, and valinomycin was added thereto to a final concentration of 2 μM. The mixture was incubated for further 2 minutes. The point of addition of 0.1 mM [α-^32P]ATP (3.7 GBq/mmol) was defined as the initiation of activity measurement. At a predetermined time point, 130 μL of the reaction liquid was recovered and centrifuged through a Sephadex G-50 (fine) spin column at 760×g for 2 minutes. The uptake of ATP was measured by measuring the radioactivity included in the reaction liquid that had passed through the column using a liquid scintillation counter. In the measurement of the transport activity for ADP and GTP, [2,8-^3H]ADP (0.37 GBq/mmol) and [α-^32P]GTP (3.7 GBq/mmol) were used instead of ATP as the substrate.
In an experiment for an inhibitor, a predetermined concentration of an inhibitor was added upon incubation of the proteoliposomes.

Assay [2] relates to SLC17 family transporter proteins. The assay can be described thus: ATP uptake by other SLC17 family proteins reconstituted like SLC17A9. The note with it: 0.1 mM [α-32P]ATP, uptake after 2 minutes, relative to SLC17A9 protein. The assay is classed as biochemical. How it is done: as §1
The nucleotide transport activity was measured by the following procedure. The reconstituted proteoliposomes were incubated in a buffer solution containing 20 mM MOPS-Tris (pH 7.0), 0.15M potassium acetate, 2 mM magnesium acetate and 4 mM potassium chloride, at 27° C. for 2 minutes, and valinomycin was added thereto to a final concentration of 2 μM. The mixture was incubated for further 2 minutes. […] At a predetermined time point, 130 μL of the reaction liquid was recovered and centrifuged through a Sephadex G-50 (fine) spin column at 760×g for 2 minutes.
Each of the transporter proteins that belong to the SLC17 family was purified in the same manner as in the case of SLC17A9, and was reconstituted according to the technique of Example 11.

Broadly, the IC50 is the concentration that gives 50% inhibition. Take `Cc1cc(-c2ccc(/N=N/c3ccc4c(S(=O)(=O)O)cc(S(=O)(=O)O)c(N)c4c3O)c(C)c2)ccc1/N=N/c1ccc2c(S(=O)(=O)O)cc(S(=O)(=O)O)c(N)c2c1O` [Evans Blue]: in assay [1] (SLC17A9 reconstituted proteoliposomes, FIG. 17B), the IC50 came out at 40 nM.

Consider `C=C1[C@@H]2CC[C@H]3[C@]4(C)C[C@H](O[C@@H]5O[C@H](CO)[C@@H](OS(=O)(=O)O)[C@H](OS(=O)(=O)O)[C@H]5OC(=O)CC(C)C)C[C@@H](C(=O)O)[C@H]4CC[C@]3(C2)[C@H]1O` [atractyloside], for which, in assay [1] (atractyloside 200 μM, with or without Mg2+, FIG. 17(C)), the “effect of addition on the ATP uptake” value is recorded as “Only when Mg^2+ was present, the ATP uptake was inhibited”.

Regarding `Cl` [chloride ions], the “chloride ion concentration at which ATP uptake activity reached a steady state” value in assay [1] (chloride ions at various concentrations, FIG. 14) was determined as 4 mM.

With `CC(C)[C@@H]1NC(=O)[C@H](C)OC(=O)[C@@H](C(C)C)NC(=O)[C@@H](C(C)C)OC(=O)[C@H](C(C)C)NC(=O)[C@H](C)OC(=O)[C@@H](C(C)C)NC(=O)[C@@H](C(C)C)OC(=O)[C@H](C(C)C)NC(=O)[C@H](C)OC(=O)[C@@H](C(C)C)NC(=O)[C@@H](C(C)C)OC1=O` [valinomycin], the “effect on uptake of radioactive ATP” value in assay [1] (ATP 100 μM, valinomycin 2 μM, FIG. 13(B)) was “activated”.

B1: NPT1: SLC17 family transporter protein, gene SLC17A1 (protein, UniProt Q14916 1-467, looked up)
Sodium-dependent phosphate …: MQMDNRLPPKKVPGFCSFRYGLSFLVHCCNVIITAQRACLNLTMVVMVNSTDPHGLPNTSTKKLLDNIKNPMYNWSPDIQGIILSSTSYGVIIIQVPVGYFSGIYSTKKMIGFALCLSSVLSLLIPPAAGIGVAWVVVCRAVQGAAQGIVATAQFEIYVKWAPPLERGRLTSMSTSGFLLGPFIVLLVTGVICESLGWPMVFYIFGACGCAVCLLWFVLFYDDPKDHPCISISEKEYITSSLVQQVSSSRQSLPIKAILKSLPVWAISTGSFTFFWSHNIMTLYTPMFINSMLHVNIKENGFLSSLPYLFAWICGNLAGQLSDFFLTRNILSVIAVRKLFTAAGFLLPAIFGVCLPYLSSTFYSIVIFLILAGATGSFCLGGVFINGLDIAPRYFGFIKACSTLTGMIGGLIASTLTGLILKQDPESAWFKTFILMAAINVTGLIFYLIVATAEIQDWAKEKQHTRL
Take B1: the “ATP Transport (%)” value in assay [2] is reported as 2.0 ± 1.1%.

B2: VGLUT3: SLC17 family transporter protein, gene SLC17A8 (protein, UniProt Q8NDX2 1-589, looked up)
Vesicular glutamate …: MPFKAFDTFKEKILKPGKEGVKNAVGDSLGILQRKIDGTTEEEDNIELNEEGRPVQTSRPSPPLCDCHCCGLPKRYIIAIMSGLGFCISFGIRCNLGVAIVEMVNNSTVYVDGKPEIQTAQFNWDPETVGLIHGSFFWGYIMTQIPGGFISNKFAANRVFGAAIFLTSTLNMFIPSAARVHYGCVMCVRILQGLVEGVTYPACHGMWSKWAPPLERSRLATTSFCGSYAGAVVAMPLAGVLVQYIGWSSVFYIYGMFGIIWYMFWLLQAYECPAAHPTISNEEKTYIETSIGEGANVVSLSKFSTPWKRFFTSLPVYAIIVANFCRSWTFYLLLISQPAYFEEVFGFAISKVGLLSAVPHMVMTIVVPIGGQLADYLRSRQILTTTAVRKIMNCGGFGMEATLLLVVGFSHTKGVAISFLVLAVGFSGFAISGFNVNHLDIAPRYASILMGISNGVGTLSGMVCPLIVGAMTRHKTREEWQNVFLIAALVHYSGVIFYGVFASGEKQEWADPENLSEEKCGIIDQDELAEEIELNHESFASPKKKMSYGATSQNCEVQKKEWKGQRGATLDEEELTSYQNEERNFSTIS
In the case of B2, the “ATP Transport (%)” value in assay [2] worked out at 7.1 ± 2.1%.

B3: Sialin: SLC17 family transporter protein, gene SLC17A5 (protein, UniProt Q9NRA2 1-495, looked up)
Sialin: MRSPVRDLARNDGEESTDRTPLLPGAPRAEAAPVCCSARYNLAILAFFGFFIVYALRVNLSVALVDMVDSNTTLEDNRTSKACPEHSAPIKVHHNQTGKKYQWDAETQGWILGSFFYGYIITQIPGGYVASKIGGKMLLGFGILGTAVLTLFTPIAADLGVGPLIVLRALEGLGEGVTFPAMHAMWSSWAPPLERSKLLSISYAGAQLGTVISLPLSGIICYYMNWTYVFYFFGTIGIFWFLLWIWLVSDTPQKHKRISHYEKEYILSSLRNQLSSQKSVPWVPILKSLPLWAIVVAHFSYNWTFYTLLTLLPTYMKEILRFNVQENGFLSSLPYLGSWLCMILSGQAADNLRAKWNFSTLCVRRIFSLIGMIGPAVFLVAAGFIGCDYSLAVAFLTISTTLGGFCSSGFSINHLDIAPSYAGILLGITNTFATIPGMVGPVIAKSLTPDNTVGEWQTVFYIAAAINVFGAIFFTLFAKGEVQNWALNDHHGHRH
On to B3, for which the “ATP Transport (%)” value in assay [2] is listed as 2.1 ± 0.8%.

B4: SLC17A9 protein: purified SLC17A9 membrane protein, vesicular nucleotide transporter (protein, UniProt Q9BYT1 1-436, looked up)
Voltage-gated purine …: MQPPPDEARRDMAGDTQWSRPECQAWTGTLLLGTCLLYCARSSMPICTVSMSQDFGWNKKEAGIVLSSFFWGYCLTQVVGGHLGDRIGGEKVILLSASAWGSITAVTPLLAHLSSAHLAFMTFSRILMGLLQGVYFPALTSLLSQKVRESERAFTYSIVGAGSQFGTLLTGAVGSLLLEWYGWQSIFYFSGGLTLLWVWYVYRYLLSEKDLILALGVLAQSRPVSRHNRVPWRRLFRKPAVWAAVVSQLSAACSFFILLSWLPTFFEETFPDAKGWIFNVVPWLVAIPASLFSGFLSDHLINQGYRAITVRKLMQGMGLGLSSVFALCLGHTSSFCESVVFASASIGLQTFNHSGISVNIQDLAPSCAGFLFGVANTAGALAGVVGVCLGGYLMETTGSWTCLFNLVAIISNLGLCTFLVFGQAQRVDLSSTHEDL
For B4, the “ATP Transport (%)” value in assay [2] is on record as 100.0%.

B5: VGLUT1: SLC17 family transporter protein, gene SLC17A7 (protein, UniProt Q9P2U7 1-560, looked up)
Vesicular glutamate …: MEFRQEEFRKLAGRALGKLHRLLEKRQEGAETLELSADGRPVTTQTRDPPVVDCTCFGLPRRYIIAIMSGLGFCISFGIRCNLGVAIVSMVNNSTTHRGGHVVVQKAQFSWDPETVGLIHGSFFWGYIVTQIPGGFICQKFAANRVFGFAIVATSTLNMLIPSAARVHYGCVIFVRILQGLVEGVTYPACHGIWSKWAPPLERSRLATTAFCGSYAGAVVAMPLAGVLVQYSGWSSVFYVYGSFGIFWYLFWLLVSYESPALHPSISEEERKYIEDAIGESAKLMNPLTKFSTPWRRFFTSMPVYAIIVANFCRSWTFYLLLISQPAYFEEVFGFEISKVGLVSALPHLVMTIIVPIGGQIADFLRSRRIMSTTNVRKLMNCGGFGMEATLLLVVGYSHSKGVAISFLVLAVGFSGFAISGFNVNHLDIAPRYASILMGISNGVGTLSGMVCPIIVGAMTKHKTREEWQYVFLIASLVHYGGVIFYGVFASGEKQPWAEPEEMSEEKCGFVGHDQLAGSDDSEMEDEAEPPGAPPAPPPSYGATHSTFQPPRPPPPVRDY
Regarding B5, in assay [2], the “ATP Transport (%)” value came to 1.7 ± 0.7%.

B6: VGLUT2: SLC17 family transporter protein, gene SLC17A6 (protein, UniProt Q9P2U8 1-582, looked up)
Vesicular glutamate …: MESVKQRILAPGKEGLKNFAGKSLGQIYRVLEKKQDTGETIELTEDGKPLEVPERKAPLCDCTCFGLPRRYIIAIMSGLGFCISFGIRCNLGVAIVDMVNNSTIHRGGKVIKEKAKFNWDPETVGMIHGSFFWGYIITQIPGGYIASRLAANRVFGAAILLTSTLNMLIPSAARVHYGCVIFVRILQGLVEGVTYPACHGIWSKWAPPLERSRLATTSFCGSYAGAVIAMPLAGILVQYTGWSSVFYVYGSFGMVWYMFWLLVSYESPAKHPTITDEERRYIEESIGESANLLGAMEKFKTPWRKFFTSMPVYAIIVANFCRSWTFYLLLISQPAYFEEVFGFEISKVGMLSAVPHLVMTIIVPIGGQIADFLRSKQILSTTTVRKIMNCGGFGMEATLLLVVGYSHTRGVAISFLVLAVGFSGFAISGFNVNHLDIAPRYASILMGISNGVGTLSGMVCPIIVGAMTKNKSREEWQYVFLIAALVHYGGVIFYAIFASGEKQPWADPEETSEEKCGFIHEDELDEETGDITQNYINYGTTKSYGATTQANGGWPSGWEKKEEFVQGEVQDSHSYKDRVDYS
In the case of B6, the “ATP Transport (%)” value in assay [2] was found to be 0.1 ± 0.2%.

For the origin of these results see patent publication US7951595B2, “Methods for screening modulators of SLC17-type anion transport activity” (National University Corporation Okayama University, priority 2007, dated 2011).
